Measured values taken from PMC5410337, “Anti-cancer effect of novel PAK1 inhibitor via induction of PUMA-mediated cell death and p21-mediated cell cycle arrest” (Oncotarget, 2017).

Biological target: T1, recombinant full-length human PUMA (residue 1-193) (human, UniProt Q9BXH1 1-193)
T1 construct: Expressed as a GST fusion from pGEX-TEV (TEV site present); also called PUMA protein
T1 sequence (looked up): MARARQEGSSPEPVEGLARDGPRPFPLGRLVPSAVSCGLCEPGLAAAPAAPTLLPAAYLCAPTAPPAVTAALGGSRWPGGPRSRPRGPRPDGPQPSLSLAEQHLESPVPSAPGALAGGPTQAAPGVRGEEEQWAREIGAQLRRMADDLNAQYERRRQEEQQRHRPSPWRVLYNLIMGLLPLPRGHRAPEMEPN
Experiment: ELISA; PAK1 recombinant protein immobilised on a 96-well plate with 0.5% paraformaldehyde; chemicals (25 or 50 uM) added, then PUMA protein, 2 hr; detected with anti-PUMA antibody and anti-rabbit IgG-HRP, absorbance at 450 nm
Details: both partners purified

B1: GST-PAK1 N-terminal domain (residues 70-149) (domain or fragment, human, UniProt Q13153 70-149, looked up)
chain: KERPEISLPSDFEHTIHVGFDAVTGEFTGMPEQWARLLQTSNITKSEQKKNPQAVLDVLEFYNSKKTSNSQKYMSFTDKS
notes: Cloned in pGEX-TEV (pGEX-4T1 with a TEV site); pGEX vectors put GST at the N-terminus (surmised); GST is kept on agarose beads in the pull-downs; the discussion says the N-terminal region of PAK1 was used for the screening; also called PAK1 recombinant protein; N-terminal region of PAK1
binding result: binds
